According to US20150086555A1 (THERACLONE SCIENCES, published 2015):

B1: TCN-560 (5084_P10) (antibody, V domains shown)
VH: EVQLVESGGGLVQPGGSLRLSCAASGFIFRNYWMSWVRQAPGKGLEWVANIKQDGREKYYVDSLRGRVNISRDNAENSLYLHMNSLRVEDTAVYFCARARMVVVTGDGFDVWGHGTMVTVSS
VL: DIQMTQSPSSLSASVGDRVTITCRASQNIKRYFNWYQQKPGKAPKLLIYAASNLENGVPSRFSGSGSGTDFTLTISSLQPEDFATYYCQQSFSKSWTFGQGTNVDIK
B2: TCN-556 (5089_K12) (antibody, V domains shown)
VH: QVQLVQSGAEVKKPGASVKVSCKASGYTFIGYDMHWVRQAPGQGLEWMGWINAKRGGTNYAQKFQGRVTMTRDTSISTAYMELNSLRSDDTAVYYCARGVGSRTTIFGVLNPEFDYWGQGTLVTVSS
VL: QSALTQPPSASGSPGQSVTISCTGSSSDVGGYDYVSWYQQHPGKAPKLLIYEVTKRPSGVPDRFSGSKSGNTASLTVSGLQAEDEADYYCSSYAGNYNHVFGPGTKVTVL
B3: TCN-556 (5089_K12) (antibody, V domains shown)
VH: B2 VH
VL: B2 VL
B4: TCN-533 (5256_A17a) (antibody, V domains shown)
VH: QVQLVQSGADVKKPGSSVTVSCKASGGSFSNYGINWVRQAPGQGLEWMGGIIPLINAPNYAPKFQGRVTITADMFSNIVSLQLTSLRTDDTAVYYCARRKMTTAIDYWGQGTLVTVSS
VL: QPVLTQPPSASASLGASVTLTCTLSSAYSNYKVDWYQQRPGKGPRFVMRVGTGGIVGSKGDGIPDRFSVLGSGLNRYLTIKNIQEEDESDYHCGADHGSGSNFVSPYVFGGGTKLTVL
B5: TCN-533 (5256_A17a) (antibody, V domains shown)
VH: B4 VH
VL: B4 VL
B6: TCN-533 (5256_A17a) (antibody, V domains shown)
VH: B4 VH
VL: B4 VL

What was measured:
[1] = biological target: recombinant soluble homotrimeric HA, A/common magpie/Hong Kong/5052/07 H5N1 (Influenza A virus A/common magpie/Hong …); assay: microarray, transfection SN IgG, trimeric HA
[2] = biological target: recombinant homotrimeric HA A/common magpie/Hong Kong/5052/07 H5N1 (Influenza A virus A/common magpie/Hong …); assay: protein microarray, purified IgG, trimeric HA
[3] = biological target: recombinant soluble homotrimeric HA of A/common magpie/Hong Kong/5052/07 (H5N1) (Influenza A virus A/common magpie/Hong …); assay: trimeric HA microarray, transfection supernatant set 3
[4] = biological target: recombinant soluble homotrimeric HA of A/common magpie/Hong Kong/5052/07 (H5N1) (Influenza A virus A/common magpie/Hong …); assay: HA microarray, BCC supernatant

Binder | Trimeric HA Binding: RLU [1] | Trimeric HA Binding: RLU [2] | also measured
B1 | 30500 RLU | – | –
B2 | 20100 RLU | – | –
B3 | – | 25600 RLU | –
B4 | – | – | Trimeric HA Binding: RLU [3]: 25200 RLU
B5 | – | – | Trimeric HA Binding: RLU [4]: 44500 RLU
B6 | – | 19000 RLU | –
